Experiments:
[1] = molecular target: genetically engineered calmodulin (CaM) with cysteine on N-terminus (UniProt P0DP23); experiment: atomic force microscopy (height of the immobilised protein pattern); CaM immobilised by cysteine-Hg-SH coupling on MUTMS patterns on OTS-coated silicon; soaked 10 min in 1 g mL^-1 CaM KI binding domain solution at 4 °C, rinsed with buffer; imaged in air, ac mode, 75% relative humidity, 25 °C; height from topography histograms
[2] = molecular target: genetically engineered calmodulin (CaM) with cysteine on N-terminus (UniProt P0DP23); experiment: atomic force microscopy (height of the immobilised protein pattern); CaM immobilised by cysteine-Hg-SH coupling on MUTMS patterns on OTS-coated silicon; soaked 10 min in CaM KI binding domain solution at 4 °C, rinsed with buffer; imaged in air, ac mode, 75% relative humidity, 25 °C; height from topography histograms

Calmodulin-dependent protein kinase I (299-320) binding domain (from UniProt Q63450 299-320) (peptide)
increase of the height of the CaM layer [1]: 11.3 Å | apparent height above OTS of the KIBD-CaM pattern [2]: 4.2 nm
